We go through 5 molecules from article PMC9795039, “Kindlin2 enables EphB/ephrinB bi-directional signaling to support vascular development” (Life Science Alliance, 2022).

T1: his-tagged human full-length kindlin2 (human, UniProt Q96AC1 1-680)
T1 construct: human full-length kindlin2 in gWIZ vector; also called purified kindlin2; recombinant kindlin2; source: Expi293F cells, purified
T1 sequence (looked up): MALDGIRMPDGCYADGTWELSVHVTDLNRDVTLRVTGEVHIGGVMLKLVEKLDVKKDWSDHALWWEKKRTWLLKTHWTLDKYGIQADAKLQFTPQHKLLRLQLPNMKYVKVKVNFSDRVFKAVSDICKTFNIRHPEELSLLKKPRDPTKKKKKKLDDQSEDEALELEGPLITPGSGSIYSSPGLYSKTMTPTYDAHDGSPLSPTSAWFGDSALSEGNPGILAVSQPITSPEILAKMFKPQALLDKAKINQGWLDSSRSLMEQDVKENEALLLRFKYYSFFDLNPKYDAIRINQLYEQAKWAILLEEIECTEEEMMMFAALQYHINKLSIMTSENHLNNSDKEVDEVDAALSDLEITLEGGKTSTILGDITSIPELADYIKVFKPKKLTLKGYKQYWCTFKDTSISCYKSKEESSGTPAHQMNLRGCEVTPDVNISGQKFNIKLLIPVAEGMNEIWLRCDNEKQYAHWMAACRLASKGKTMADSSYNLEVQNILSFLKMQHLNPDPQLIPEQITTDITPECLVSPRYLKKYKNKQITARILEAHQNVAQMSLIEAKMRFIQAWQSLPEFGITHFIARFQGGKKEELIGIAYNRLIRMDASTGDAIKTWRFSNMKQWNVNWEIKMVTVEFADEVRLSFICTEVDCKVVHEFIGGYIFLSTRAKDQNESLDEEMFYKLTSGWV

B1: his/Avi-tagged cytoplasmic tail of ephrinB2 WT (domain or fragment, UniProt P52799 251-333, looked up)
chain: KYRRRHRKHSPQHTTTLSLSTLATPKRSGNNNGSEPSDIIIPLRTADSVFCPHYEKVSGDYGHPVYIVQEMPPQSPANIYYKV
modifications: biotinylated
notes: ephrinB2 cytoplasmic tail; Vector (his/Avi-tagged in pET15) and purification after Pfaff et al, 1998; The forward primer printed for the 4A construct reads KYRRR after the HindIII site, which may mark the start of the tail; also called ephrinB2 WT tail; ephrinB2 cytoplasmic tail; source: Escherichia coli (DE3), purified
B2: his/Avi-tagged cytoplasmic tail of ephrinB2 S325A (domain or fragment, UniProt P52799 251-333, looked up)
chain: KYRRRHRKHSPQHTTTLSLSTLATPKRSGNNNGSEPSDIIIPLRTADSVFCPHYEKVSGDYGHPVYIVQEMPPQAPANIYYKV
modifications: biotinylated
notes: ephrinB2 cytoplasmic tail with S325A; source: Escherichia coli (DE3), purified
B3: his/Avi-tagged cytoplasmic tail of ephrinB2 N328A (domain or fragment, UniProt P52799 251-333, looked up)
chain: KYRRRHRKHSPQHTTTLSLSTLATPKRSGNNNGSEPSDIIIPLRTADSVFCPHYEKVSGDYGHPVYIVQEMPPQSPAAIYYKV
modifications: biotinylated
notes: ephrinB2 cytoplasmic tail with N328A; source: Escherichia coli (DE3), purified
B4: his/Avi-tagged cytoplasmic tail of ephrinB2 2A (domain or fragment, UniProt P52799 251-333, looked up)
chain: KYRRRHRKHSPQHTTTLSLSTLATPKRSGNNNGSEPSDIIIPLRTADSVFCPHYEKVSGDYGHPVYIVQEMPPQSPAAIYAKV
modifications: biotinylated
notes: ephrinB2 cytoplasmic tail with N328A and Y331A; also called double point mutation (N328A and Y331A); source: Escherichia coli (DE3), purified
B5: his/Avi-tagged cytoplasmic tail of ephrinB2 Y331A (domain or fragment, UniProt P52799 251-333, looked up)
chain: KYRRRHRKHSPQHTTTLSLSTLATPKRSGNNNGSEPSDIIIPLRTADSVFCPHYEKVSGDYGHPVYIVQEMPPQSPANIYAKV
modifications: biotinylated
notes: ephrinB2 cytoplasmic tail with Y331A; source: Escherichia coli (DE3), purified

The assay deals with T1, his-tagged human full-length kindlin2. Put plainly: pull-down; in vitro binding assay: purified kindlin2 mixed with purified cytoplasmic tails immobilised on NeutrAvidin beads; Western blot with anti-kindlin2 antibody. As to conditions: both partners purified.
For B1, the binding result is “binds”.

In the case of B2, the binding result was “binds”.

As for B3, the binding result was “binds”.

As to B4, the binding result is on record as “binds”.

Take B5: the binding result is given as “binds”.
